Drawing on ChEMBL document CHEMBL1147688, “Development of a dual fluorogenic and chromogenic dipeptidyl peptidase IV substrate” (Bioorg Med Chem Lett, 2006), this text covers Km for 1 protein.

Substrate in the series: NCC(=O)N1CCC[C@H]1C(=O)NCC(=O)N1CCC[C@H]1C(=O)Nc1cc2oc3cc(=[N+](CCCS(=O)(=O)O)CCCS(=O)(=O)O)ccc-3nc2c2ccccc12
Nature of the series: Affinity for DPP4. The conditions noted are these: Homo sapiens.

In general, Km refers to the substrate concentration at which the rate is half of its maximum.

B1: Dipeptidyl peptidase 4 (Homo sapiens), P27487 (protein)
chain: MKTPWKVLLGLLGAAALVTIITVPVVLLNKGTDDATADSRKTYTLTDYLKNTYRLKLYSLRWISDHEYLYKQENNILVFNAEYGNSSVFLENSTFDEFGHSINDYSISPDGQFILLEYNYVKQWRHSYTASYDIYDLNKRQLITEERIPNNTQWVTWSPVGHKLAYVWNNDIYVKIEPNLPSYRITWTGKEDIIYNGITDWVYEEEVFSAYSALWWSPNGTFLAYAQFNDTEVPLIEYSFYSDESLQYPKTVRVPYPKAGAVNPTVKFFVVNTDSLSSVTNATSIQITAPASMLIGDHYLCDVTWATQERISLQWLRRIQNYSVMDICDYDESSGRWNCLVARQHIEMSTTGWVGRFRPSEPHFTLDGNSFYKIISNEEGYRHICYFQIDKKDCTFITKGTWEVIGIEALTSDYLYYISNEYKGMPGGRNLYKIQLSDYTKVTCLSCELNPERCQYYSVSFSKEAKYYQLRCSGPGLPLYTLHSSVNDKGLRVLEDNSALDKMLQNVQMPSKKLDFIILNETKFWYQMILPPHFDKSKKYPLLLDVYAGPCSQKADTVFRLNWATYLASTENIIVASFDGRGSGYQGDKIMHAINRRLGTFEVEDQIEAARQFSKMGFVDNKRIAIWGWSYGGYVTSMVLGSGSGVFKCGIAVAPVSRWEYYDSVYTERYMGLPTPEDNLDHYRNSTVMSRAENFKQVEYLLIHGTADDNVHFQQSAQISKALVDVGVDFQAMWYTDEDHGIASSTAHQHIYTHMSHFIKQCFSLP
With B1, the Km came to 56 µM.
